Molecular target: T1, FLAG-tagged FAAP20 (human, UniProt Q6NZ36 1-180)
T1 sequence (looked up): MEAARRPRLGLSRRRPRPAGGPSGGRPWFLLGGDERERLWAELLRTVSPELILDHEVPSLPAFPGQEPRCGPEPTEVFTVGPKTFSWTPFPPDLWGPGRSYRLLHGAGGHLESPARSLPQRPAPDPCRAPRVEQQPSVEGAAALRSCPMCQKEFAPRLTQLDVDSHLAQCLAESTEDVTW
Assay: LUMIER

B1: Renilla luciferase-tagged FANCA R880Q (natural protein, human, UniProt O15360-1 1-1455, looked up)
chain: MSDSWVPNSASGQDPGGRRRAWAELLAGRVKREKYNPERAQKLKESAVRLLRSHQDLNALLLEVEGPLCKKLSLSKVIDCDSSEAYANHSSSFIGSALQDQASRLGVPVGILSAGMVASSVGQICTAPAETSHPVLLTVEQRKKLSSLLEFAQYLLAHSMFSRLSFCQELWKIQSSLLLEAVWHLHVQGIVSLQELLESHPDMHAVGSWLFRNLCCLCEQMEASCQHADVARAMLSDFVQMFVLRGFQKNSDLRRTVEPEKMPQVTVDVLQRMLIFALDALAAGVQEESSTHKIVRCWFGVFSGHTLGSVISTDPLKRFFSHTLTQILTHSPVLKASDAVQMQREWSFARTHPLLTSLYRRLFVMLSAEELVGHLQEVLETQEVHWQRVLSFVSALVVCFPEAQQLLEDWVARLMAQAFESCQLDSMVTAFLVVRQAALEGPSAFLSYADWFKASFGSTRGYHGCSKKALVFLFTFLSELVPFESPRYLQVHILHPPLVPGKYRSLLTDYISLAKTRLADLKVSIENMGLYEDLSSAGDITEPHSQALQDVEKAIMVFEHTGNIPVTVMEASIFRRPYYVSHFLPALLTPRVLPKVPDSRVAFIESLKRADKIPPSLYSTYCQACSAAEEKPEDAALGVRAEPNSAEEPLGQLTAALGELRASMTDPSQRDVISAQVAVISERLRAVLGHNEDDSSVEISKIQLSINTPRLEPREHMAVDLLLTSFCQNLMAASSVAPPERQGPWAALFVRTMCGRVLPAVLTRLCQLLRHQGPSLSAPHVLGLAALAVHLGESRSALPEVDVGPPAPGAGLPVPALFDSLLTCRTRDSLFFCLKFCTAAISYSLCKFSSQSRDTLCSCLSPGLIKKFQFLMFRLFSEAQQPLSEEDVASLSWRPLHLPSADWQRAALSLWTHRTFREVLKEEDVHLTYQDWLHLELEIQPEADALSDTERQDFHQWAIHEHFLPESSASGGCDGDLQAACTILVNALMDFHQSSRSYDHSENSDLVFGGRTGNEDIISRLQEMVADLELQQDLIVPLGHTPSQEHFLFEIFRRRLQALTSGWSVAASLQRQRELLMYKRILLRLPSSVLCGSSFQAEQPITARCEQFFHLVNSEMRNFCSHGGALTQDITAHFFRGLLNACLRSRDPSLMVDFILAKCQTKCPLILTSALVWWPSLEPVLLCRWRRHCQSPLPRELQKLQEGRQFASDFLSPEAASPAPNPDWLSAAALHFAIQQVREENIRKQLKKLDCEREELLVFLFFFSLMGLLSSHLTSNSTTDLPKAFHVCAAILECLEKRKISWLALFQLTESDLRLGRLLLRVAPDQHTRLLPFAFYSLLSYFHEDAAIREEAFLHVAVDMYLKLVQLFVAGDTSTVSPPAGRSLELKGQGNPVELITKARLFLLQLIPRCPKKSFSHVAELLADRGDCDPEVSAALQSRQQAAPDADLSQEPHLF
Question: How did the “fold weaker binding than wild-type FANCA” value turn out when B1 was run?
Answer: ~8 fold

From paper PMC5325763 (Cell, 2017)
